T1: IL-2R CD122-CD132 on Jurkat-PD1+ CD122+ cells (UniProt P14784 27-551; P31785 23-369)
T1 sequence (looked up) 1: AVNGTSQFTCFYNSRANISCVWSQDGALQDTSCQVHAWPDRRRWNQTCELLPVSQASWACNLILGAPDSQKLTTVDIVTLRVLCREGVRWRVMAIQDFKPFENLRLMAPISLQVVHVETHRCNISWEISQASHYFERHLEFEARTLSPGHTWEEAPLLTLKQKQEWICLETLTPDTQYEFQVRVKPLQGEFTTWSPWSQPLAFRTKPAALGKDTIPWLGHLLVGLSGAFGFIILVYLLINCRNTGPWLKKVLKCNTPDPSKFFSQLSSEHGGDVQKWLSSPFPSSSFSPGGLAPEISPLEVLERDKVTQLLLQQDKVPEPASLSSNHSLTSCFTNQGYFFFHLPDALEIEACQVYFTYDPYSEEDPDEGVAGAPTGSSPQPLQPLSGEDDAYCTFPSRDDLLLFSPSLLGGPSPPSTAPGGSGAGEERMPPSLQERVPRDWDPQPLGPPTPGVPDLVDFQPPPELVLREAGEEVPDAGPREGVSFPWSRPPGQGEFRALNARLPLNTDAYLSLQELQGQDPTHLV
T1 sequence (looked up) 2: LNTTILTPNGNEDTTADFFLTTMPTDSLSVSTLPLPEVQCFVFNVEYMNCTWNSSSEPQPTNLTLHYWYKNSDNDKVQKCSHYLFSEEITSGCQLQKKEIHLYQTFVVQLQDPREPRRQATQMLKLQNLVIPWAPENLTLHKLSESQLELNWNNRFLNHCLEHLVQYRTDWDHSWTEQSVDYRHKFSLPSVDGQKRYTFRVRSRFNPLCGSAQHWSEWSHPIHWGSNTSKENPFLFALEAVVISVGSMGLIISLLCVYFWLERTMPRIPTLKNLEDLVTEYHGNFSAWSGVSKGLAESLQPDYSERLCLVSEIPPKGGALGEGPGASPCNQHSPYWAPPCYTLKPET

B1: YPW986 (bispecific antibody)
chain 1: EVQLLESGGGLVQPGGSLRLSCAASGFTFSINAMTWVRQAPGKGLEWVSTISGSGFSTYYADSLKGRFTISRDNSKNTLYLQMNSLRAEDTAVYYCAKEVYGDYWGQGTLVTVSSASVAAPSVFIFPPSDEQLKSGTASVVCLLNNFYPREAKVQWKVDNALQSGNSQESVTEQDSKDSTYSLSSTLTLSKADYEKHKVYACEVTHQGLSSPVTKSFNRGECDKTHTCPPCPAPEAAGGPSVFLFPPKPKDTLMISRTPEVTCVVVDVSHEDPEVKFNWYVDGVEVHNAKTKPREEQYNSTYRVVSVLTVLHQDWLNGKEYKCKVSNKALAAPIEKTISKAKGQPREPQVYTLPPSREEMTKNQVSLTCLVKGFYPSDIAVEWESNGQPENNYKTTPPVLDSDGSFFLTSKLTVDKSRWQQGNVFSCSVMHEALHNHYTQKSLSLSPGK
chain 2: RSVLTQPPSASGTPGQRVSISCSGASSNIGSQSVFWYQQLPGTAPKLLIYSNNQRPSGVPDRFSGSKSGTSASLAISGLRSEDEADYYCAAWDDSLSIWVFGGGTKLTVLSSASTKGPSVFPLAPSSKSTSGGTAALGCLVKDYFPEPVTVSWNSGALTSGVHTFPAVLQSSGLYSLSSVVTVPSSSLGTQTYICNVNHKPSNTKVDKRVEPKSC
chain 3: EVQLVQSGAEVKKPGESLKISCKGSGYAFTNYLIEWVRQMPGKGLEWMGVINPGSGGTNYNEKFKGQVTISADKSISTAYLQWSSLKASDTAMYYCARWRGEGYYAYFDVWGQGTTVTVSSASTKGPSVFPLAPSSKSTSGGTAALGCLVKDYFPEPVTVSWNSGALTSGVHTFPAVLQSSGLYSLSSVVTVPSSSLGTQTYICNVNHKPSNTKVDKRVEPKSCDKTHTCPPCPAPEAAGGPSVFLFPPKPKDTLMISRTPEVTCVVVDVSHEDPEVKFNWYVDGVEVHNAKTKPREEQYNSTYRVVSVLTVLHQDWLNGKEYKCKVSNKALAAPIEKTISKAKGQPREPQVYTLPPSREEMTKNQVSLYCLVKGFYPSDIAVEWESNGQPENNYKTTPPVLDSDGSFFLYSKLTVDKSRWQQGNVFSCSVMHEALHNHYTQKSLSLSPGK
chain 4: not shown
B2: RIB426 (bispecific antibody, human IgG1, kappa, L234A L235A)
chain 1: QVQLVQSGAEVKKPGASVKVSCKASGYTFTNFYIHWVRQAPGQGLEWMGRIYPNYGITAYNQKFKDRVTMTVDTSTSTAYMELRSLRSDDTAVYYCARGYSYAMDYWGQGTTVTVSSASVAAPSVFIFPPSDEQLKSGTASVVCLLNNFYPREAKVQWKVDNALQSGNSQESVTEQDSKDSTYSLSSTLTLSKADYEKHKVYACEVTHQGLSSPVTKSFNRGECDKTHTCPPCPAPEAAGGPSVFLFPPKPKDTLMISRTPEVTCVVVDVSHEDPEVKFNWYVDGVEVHNAKTKPREEQYNSTYRVVSVLTVLHQDWLNGKEYKCKVSNKALAAPIEKTISKAKGQPREPQVYTLPPSREEMTKNQVSLTCLVKGFYPSDIAVEWESNGQPENNYKTTPPVLDSDGSFFLTSKLTVDKSRWQQGNVFSCSVMHEALHNHYTQKSLSLSPGK
chain 2: DIQMTQSPSSVSASVGDRVTITCSASQGISGDLNWYQQKPGKAPKLLIYHTSQRHSDVPSRFSGSGSGTDFTLTISSLQPEDFATYYCQGYSKDLLTFGGGTKLEIKSSASTKGPSVFPLAPSSKSTSGGTAALGCLVKDYFPEPVTVSWNSGALTSGVHTFPAVLQSSGLYSLSSVVTVPSSSLGTQTYICNVNHKPSNTKVDKRVEPKSC
chain 3: B1 chain 3
chain 4: not shown
B3: QAB373 (bispecific antibody, human IgG1, kappa, L234A L235A)
chain 1: B2 chain 1 with R50S
chain 2: B2 chain 2 with R54L
chain 3: B1 chain 3
chain 4: not shown
B4: PXU588 (bispecific antibody)
chain 1: B1 chain 1
chain 2: B1 chain 2 with Q32S
chain 3: B1 chain 3
chain 4: not shown
B5: MDS446 (bispecific antibody, human IgG1, kappa, L234A L235A)
chain 1: QVQLVQSGAEVKKPGASVKVSCKASGYTFTNFYIHWVRQAPGQGLEWMGSIYPNYGITAYNQKFKDRVTMTVDTSTSTAYMELRSLRSDDTAVYYCARGYSYAMDYWGQGTTVTVSSASTKGPSVFPLAPSSKSTSGGTAALGCLVKDYFPEPVTVSWNSGALTSGVHTFPAVLQSSGLYSLSSVVTVPSSSLGTQTYICNVNHKPSNTKVDKRVEPKSCDKTHTCPPCPAPEAAGGPSVFLFPPKPKDTLMISRTPEVTCVVVDVSHEDPEVKFNWYVDGVEVHNAKTKPREEQYNSTYRVVSVLTVLHQDWLNGKEYKCKVSNKALAAPIEKTISKAKGQPREPQVYTLPPSREEMTKNQVSLTCLVKGFYPSDIAVEWESNGQPENNYKTTPPVLDSDGSFFLTSKLTVDKSRWQQGNVFSCSVMHEALHNHYTQKSLSLSPGK
chain 2: DIQMTQSPSSVSASVGDRVTITCSASQGISGDLNWYQQKPGKAPKLLIYHTSQLHSDVPSRFSGSGSGTDFTLTISSLQPEDFATYYCQGYSKDLLTFGGGTKLEIKRTVAAPSVFIFPPSDEQLKSGTASVVCLLNNFYPREAKVQWKVDNALQSGNSQESVTEQDSKDSTYSLSSTLTLSKADYEKHKVYACEVTHQGLSSPVTKSFNRGEC
chain 3: AIRLTQSPSSFSASTGDRVTITCKASQSVDYGGGNFHLRPRDLISNINVIVLELKGSETTFMCEYADETATIVEFLNRWITFSQSIISTLTPTSSSTKKTQLQLEHLLLDLQMILNGINNYKNPKLTRMLTFKFYMPKKATELKHLQCLEEELKPLEEVLNLAQSKGGGGDSYMNWYQQKPGKAPKLLIYAASNLESGVPSRFSGSGSGTDFTLTISSLQSEDFATYYCQQSNEDPYTFGGGTKVEIKGGGGSGGGGSGGGGSEVQLVQSGAEVKKPGESLKISCKGSGYAFTNYLIEWVRQMPGKGLEWMGVINPGSGGTNYNEKFKGQVTISADKSISTAYLQWSSLKASDTAMYYCARWRGEGYYAYFDVWGQGTTVTVSSGGGGSGGGGSQVQLVQSGAEVKKPGASVKVSCKASGYTFTNFYIHWVRQAPGQGLEWMGSIYPNYGITAYNQKFKDRVTMTVDTSTSTAYMELRSLRSDDTAVYYCARGYSYAMDYWGQGTTVTVSSASTKGPSVFPLAPSSKSTSGGTAALGCLVKDYFPEPVTVSWNSGALTSGVHTFPAVLQSSGLYSLSSVVTVPSSSLGTQTYICNVNHKPSNTKVDKRVEPKSCDKTHTCPPCPAPEAAGGPSVFLFPPKPKDTLMISRTPEVTCVVVDVSHEDPEVKFNWYVDGVEVHNAKTKPREEQYNSTYRVVSVLTVLHQDWLNGKEYKCKVSNKALAAPIEKTISKAKGQPREPQVYTLPPSREEMTKNQVSLYCLVKGFYPSDIAVEWESNGQPENNYKTTPPVLDSDGSFFLYSKLTVDKSRWQQGNVFSCSVMHEALHNHYTQKSLSLSPGK
B6: TMU471 (bispecific antibody, human IgG1, kappa, L234A L235A)
chain 1: B5 chain 1 with S50R
chain 2: B5 chain 2 with L54R
chain 3: B5 chain 3 with S444R

The text below walks through data of EP4491631A1 (Anaveon AG, dated 2025).

Positions count from the first letter of the chain named.

In the experiment the target is T1, IL-2R CD122-CD132 on Jurkat-PD1+ CD122+ …. In words: cell-based or functional assay.
On to B1, for which the “EC50 value for pSTAT5 induction” value was 43.9 nM. With B2, the “EC50 value for pSTAT5 induction” value is 0.12 nM. In the case of B3 it was 70 pM. The figure for B4 is 5.37 nM; for B5 it is 60 pM. The figure for B6 is 60 pM.
